Experimental data as given in article doi:10.1101/2023.08.30.555639.
Where two headings read alike, the source gives them in different places.

Key:
[1] = target: disulfide-linked BTN2A1 ectodomain homodimer (Cys247, leucine zippers) (human) (UniProt Q7KYR7); assay: SPR
[2] = target: soluble BTN3A1 ectodomain (IgV–IgC), homodimeric (human) (UniProt O00481); assay: SPR
[3] = target: soluble BTN2A1–BTN3A1–zipper ectodomain complex (wild type) (human) (UniProt Q7KYR7); assay: SPR
[4] = target: soluble BTN2A1–BTN3A1–zipper ectodomain complex (wild type) (human) (UniProt Q7KYR7); assay: SPR; remark: listed apart in the source
[5] = target: soluble BTN2A1^WT–BTN3A1^Glu106-Ala zipper ectodomain complex (human) (UniProt Q7KYR7); assay: SPR
[6] = target: BTN3A1 Ser42-Ala on transfected NIH-3T3 cells (human) (UniProt O00481); assay: flow cytometry on cells
[7] = target: BTN3A1 Phe26-Ala on transfected NIH-3T3 cells (human) (UniProt O00481); assay: flow cytometry on cells
[8] = target: BTN3A1 Leu96-Ala on transfected NIH-3T3 cells (human) (UniProt O00481); assay: flow cytometry on cells
[9] = target: BTN3A1 Lys37-Ala on transfected NIH-3T3 cells (human) (UniProt O00481); assay: flow cytometry on cells

Substance	Kd [1]	Kd [2]	Kd [3]	other results
soluble G115 Vγ9Vδ2^+ TCR His85γ-Ala			740 µM	
soluble G115 Vγ9Vδ2^+ TCR Lys53δ-Ala		> 1200 µM	46 µM	
soluble Vγ9Vδ2^+ γδTCR clone G115, wild type	99 µM	> 4000 µM	79 µM	Kd [4]: 85 µM; Kd [5]: 37 µM; reduction of G115 tetramer staining against wild-type BTN3A1 [6]: > 90%; reduction of G115 tetramer staining against wild-type BTN3A1 [7]: > 90%; reduction of G115 tetramer staining against wild-type BTN3A1 [8]: > 90%; reduction of G115 tetramer staining against wild-type BTN3A1 [9]: > 90%

Now from value to substance, other results behind:

Kd [1]	Kd [2]	Kd [3]	Substance	other results
1100 µM			monomeric BTN3A1 IgV domain (domain or fragment)	
	1800 µM		soluble BTN2A1 ectodomain lacking Cys247 (monomeric) (from UniProt Q7KYR7 29-248) (domain or fragment)	
